Results published in the supplement of paper PMC9170038.

System: K4 kissing-loop RNA reporter
Test: apparent KD of K4 kissing-loop reporter; higher = weaker reporter binding
Settings: Eterna round: R107
Protocol: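 RNA-MaP round R107: designed RNA switches with theophylline, tryptophan, arginine or FMN aptamers are transcribed on-chip within common flanks. They are titrated with a labelled K4 kissing-loop RNA reporter in RNA-MaP buffer (100 mM Tris pH 7.5, 80 mM KCl, 4 mM MgCl2), without ligand or with the indicated ligand. Median apparent KD per design.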

[1] = input ligand: theophylline 20 uM
[2] = input ligand: tryptophan 2.4 mM
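Further: bound reporter read as fluorescence of individual clusters on recovered sequencing chips by microscopy, with normalized cluster intensities fitted with a binding model.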

Row | Sequence | apparent KD of K4 kissing-loop reporter (input ligand: FMN 200 uM) [nM] | apparent KD of K4 kissing-loop reporter (input ligand: arginine 13.2 mM) [nM] | apparent KD of K4 kissing-loop reporter (input ligand: none) [nM] | apparent KD of K4 kissing-loop reporter [1] [nM] | apparent KD of K4 kissing-loop reporter [2] [nM]
1 | AUUUGUUACCUUAUAGGAGUGAUGUUCUUGCGAGGACCGGUACGGCCGCCACUCGCGCUGGCGCCUAGCCUCGGACCGUUAAUUC [theeternabot_exclusion_KL_Trp_A_25] | 582 | 325 | 635 | 497 | 431
2 | AUUUUAUUAACUGAUACCAGACUUAAUGAUUUGUAAAUUACUAGUGAUGUUAGUGAUUCUGUCCCUUGGCAGCAGUAUUUAUUUA [JR_ExcTheophyB_Sub013] | 76.2 | 85.6 | 79.2 | 87.6 | 69.4
3 | AUUUUCAUUUUAUUAUAUAACUUUUCAGAAGGAGCGUGGAAGUUCACAGGUAGGUCGCUGAAUAUUGGACUAGUGAUGUUAGUUA [JR_Nu_SSArginiA_Sub022] | 202 | 244 | 230 | 259 | 207
4 | AUUUUGGUUUAGAGUGAUGUUCCUUGUAUUCGAGGACCGGUACGGCCGCCACUCGAAUAGAAAAGAAAAGAAAUGUGUGAUGUUU [BDazzled - #5 SS Tryptophan A] | 772 | 611 | 900 | 764 | 567
5 | AUUUUGGUUUAGAGUGAUGUUCCUUGUAUUCGAGGACCGGUACGGCCGCCACUCGGGUAGAAAAGAAAAGAAAUGUUUGAUUUUU [BDazzled - #9 SS Tryptophan A] | 282 | 102 | 210 | 222 | 290
6 | AUUUUUUUAUCAGGAUAUUAGUGUUGGUUUGUUUUGUUAGUGAUGUUGAUAUUUGUUUUAUGUAUUUAAGAAGGGAUUUAGAUGU [viuupullin] | 270 | 243 | 270 | 371 | 194
7 | AUUUUUUUGUCAGGAUAUUAGUGUUGGUUUGGUUUGUUAGUGAUGUUGAUAUUUGUUUUAUGUAUUUAAGAAGGGAUUUAGCUGU [ppdemullin] | 391 | 359 | 346 | 427 | 278
8 | CAACAUCACAACUUCUUCGUCCUAGAAGACUAGGAUAUCAGGAAACUGAGAAGGAGUCUCUGCAGUGAUGUUGCAGCUAGGACGA [[K]'-[F2]'-[F1]'-[F1]-[F2]-[K1]-[K2]-[F]''_Design2b] | 231 | 216 | 185 | 266 | 219
9 | CACCAUGAAUUCUCUAGGAGUGAUGUUUUUCGAGGACCGGUACGGCCGCCACUCGGACGAGGAACGUGGGAGCGGCGAAAAGACU [xzzmullin] | 70.6 | 64 | 285 | 83.9 | 121
10 | CACCAUGAAUUCUCUAGGAGUGAUGUUUUUCGAGGACCGGUACGGCCGCCACUCGGACGAGGACCGUGGGAGCGGCGAAGCGACU [wwegmullin] | 234 | 148 | 109 | 1070 | 101
11 | CACUCGGUAUCAGAUACCAGACUAACGAUACCGAGUGUAUCGGGUAGUGAUGUUACCAUAGUCCCUUGGCAGCUGAUAUUCCCUA [Theo B SS t9a] | 252 | 203 | 258 | 210 | 199
12 | CAUACGAAGCAGUGAUGUUGCUUAUGAGAAGGAGCGCACGAAAGUGCAGGUAGGUCGCUCAGCCAUGUGGACGAAAACGUCCACA [whbob_SS_Arginine_A_sa112] | 266 | 273 | 276 | 265 | 269
13 | CAUACGCAUGGAGGAUAUGAGAUUACUCAUAUUACCCUGUAACAGGUAUCUCAGUGAUGUUGAGACUCAGAAGGCCAUGUGUAUG [Ex FMN B 22] | 713 | 354 | 415 | 435 | 387
14 | CAUACGCAUGGAGGAUAUGAGAUUUCUCAUAUUAUUUAAUAUUCUCAGUGAUGUUGAGAAAUAAACUCAGAAGGCCAUGUGUAUG [Ex FMN B 3] | 256 | 365 | 313 | 405 | 304
15 | CAUGGAGUGAUGCUCCAUGGUCGGGCUUGGCAGGAUAUGGGAUCUUCCAGAAGGGCCGAUCCCGGCGAGUGAUGUUCGCUGGUCU [Exclusion FMN A GF 28] | 167 | 332 | 316 | 433 | 271
16 | CAUUCGAAAUGCAGUGAUGUUGCAACCGAUACCAGUAUCGAAAGAUACCCUUGGCAGCGGAAAACCGCUACGUAUUUUUUGAAUG [Ex Theophylline A K4 26] | 204 | 288 | 276 | 243 | 237
17 | CAUUCGAAAUGCAGUGAUGUUGCAACUGAUACCAGUAUCGAAAGAUACCCUUGGCAGCGGAAAACCGCUACGUUUUUUUUGAAUG [Ex Theophylline A K4 24] | 191 | 312 | 312 | 357 | 176
18 | CCAACGUGAAAAGGAUAUCGCGAUGUGCACGACUAGUGAUGUUAGGAGAGGCUCGUUGAAUUGUACCGAGAAGGUUUUGAGUGGG [theeternabot_sameState_KL_FMN_B_16] | 227 | 160 | 240 | 231 | 196
19 | CCAUCGCUAUUCGAUACCAGUCAAGAGGUCUUUGGCCUCUUAAUGGAGUGAUGUUCCUUAGACCCUUGGCAGCGAAUAGUGAUGG [Theophylline B K4 13] | 266 | 127 | 237 | 340 | 124
20 | CCAUCGCUAUUCGAUACCAGUCAUUUUUUAUUUUUUUUUUUUUUUGGAGUGAUGUUCCAAGACCCUUGGCAGCGAAUAGUGAUGG [whbob_SS_Theo_B_th77] | 91.3 | 109 | 76.3 | 114 | 68.1
21 | CCAUUCUUUUACGAUACCAGUUUAAUAUAUUUAAUCAAAACCCUCGCCGAGUGAUGUUCGGACCCUUGGCAGCGUUUGCGAGAGG [bjnbstkmullin] | 455 | 291 | 582 | 533 | 397
